“And” between values parts separate entries of the source, which are not always exact repeats. Equal entries are not always repeated. Where two headings read alike, the source gives them in different places. Bounds are passed on as bounds.

The target in experiment [1] is Recombinant EEEV E2 glycoprotein (E3E2) (strain V105; IBT Bioservices) (Eastern equine encephalitis virus, strain V105). Description: ELISA, mAb on coated recombinant E2. (In general: In an ELISA, binding on a coated surface is turned into a signal by an enzyme label.)
Experiment [2] deals with Eastern equine encephalitis virus (EEEV) strain FL93-939 (Eastern equine encephalitis virus, strain FL93-939).
Experiment [3] has the same target. The source holds these as a separate data set.
Experiment [4] shares this target. This is another data set of the same source.

B1: EEEV-33 (antibody, V domains shown)
VH: QVTLKESGPALVKPTQTLTLTCTFSGFSLSTSGMRVSWIRQPPGKALEWLARIDWDDDKFYSTSLKTRLTISKDTSKNQVVLRMTNMDPVDTATYYCARILPGYCSGGSCYYNYHFDYWGQGTLVTVSS
VL: SYVLTQPPSVSVAPGQTARITCGGNNIGSKSVHWYQQKPGQAPVLVVYHDSDRPSGIPERFSGSNSGNTATLTISRVEAGDEADYYCQVWDSSSDPYVFGTGTKVTVL
Take B1: in experiment [1], the EC50 (in general, the concentration that produces a half-maximal response) was < 4 nM and < 1.2 µg/mL. For the same molecule, the IC50, neutralization, CPE assay in experiment [2] is less than 0.01 µg/mL. In experiment [3], the IC50, neutralization, PRNT is less than 0.037 nM.

B2: EEEV-143 (antibody, V domains shown)
VH: QVQLVESGGGVVQPGRSLRLSCAASGFTFSNYGIHWVRQAPGKGLEWVAVISYDGRHKYIADPVKGRFTISRDNSKNMLYLQMNSLRTEDTAVYYCAKDTSGWYEFFDSWGQGIPVTVSS
VL: EIVMTQSPATLSVSPGERATLSCRASQSVATNVAWYQQKPGQAPRLLIYGASTRATGIPARFSGSGSGTEFTLTISSLQSEDFAVYYCQQCNDWLTFGQGTKVEIK
As to B2, the IC50, neutralization, PRNT in experiment [4] worked out at 0.315 nM.

B3: EEEV-147 (antibody, V domains shown)
VH: QVQLVQSGAEVKKPGASVKVSCKASGYTFTNYGITWVRQAPGQGLEWMGWISAYNGNTDYAQKLQGRVTMTTDTSTSTAYMELGSLRSDDTAVYYCARELWFGDLGYWGQGTLVTVSS
VL: EIVLTQSPGTLSLSPGERATLSCRASQSVSRSSSSYLAWYQQKPGQAPRLLIYGASSRATGIPDRFSGSGSGTDFTLTISRLEPEDVAVYYCQQYGSSPQTFGQGTKLEIK
Turning to B3, the IC50, neutralization, CPE assay in experiment [2] was less than 1 µg/mL.

The values are drawn from US20230065377A1.
